According to US20160075789A1:

Legend:
Fc-EDA1 (human) [1] = assay: sandwich ELISA, EctoD2 at capture, biotinylated EctoD3 at revelation (FIG. 24)
Fc-EDA1 (human) [2] = assay: sandwich ELISA of Fc-EDA1 pre-incubated in buffer or mouse serum (FIG. 26)
Fc-EDA1 (human) [3] = assay: cell-based or functional assay

Fc-EDA1 (human), sequence (Q92838 249-385): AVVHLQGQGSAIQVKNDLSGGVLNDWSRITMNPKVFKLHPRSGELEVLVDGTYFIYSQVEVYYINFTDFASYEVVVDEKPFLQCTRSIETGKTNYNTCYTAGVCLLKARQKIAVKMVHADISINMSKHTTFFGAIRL

| concentration of Fc-EDA1 readily detected (Fc-EDA1 (human) [1]) [ng/mL] | most sensitive detection of Fc-EDA1 (Fc-EDA1 (human) [2]) [ng/mL] | Binder | cytotoxicity assay using EDAR-Fas Jurkat cells (PMS/MTS viability): antibody concentration at which 40 ng/mL of Fc-EDA1 is completely inhibited (Fc-EDA1 (human) [3]) [ng/mL] | cytotoxicity assay using EDAR-Fas Jurkat cells: stoichiometry of inhibition (antibodies per Fc-EDA1) (Fc-EDA1 (human) [3]) |
| --- | --- | --- | --- | --- |
| < 1 | < 1 | mAbEDA1-EctoD2 (antibody, mouse IgG1, V domains shown) VH: EVMLEESGGGLVKSGGSLKLSCAASGFTFSTYAMSWVRQTPGKRLEWVAAISDGGDNTYYLDSVKGRFTISRDNAKNTLYLQMSSLRSEDSALYYCARQYNDYEAMDYWGQGTSLTVSS VL: DIVLTQSPTSLAVSLGQRATISCRASESVDSYGSSFMHWYQQKPGQPPKLLFYRASNLESGIPARFSGSGSRTDFTLTINPVEADDVATYYCQQSNEDPFTFGSGTKLEIKR | 125 | 5 |
| < 1 | < 1 | mAbEDA1-EctoD3 (antibody, mouse IgG1, V domains shown) VH: QVQLHQSGAELARPGASVKLSCKASGYTFTSYGISWVKQRTGQGLEWIGEVYPRSGDTYYHDYFEGKATLTADKSSSTAYMELRSLTSEDSAVYFCARGDYADVWGTGTTVTVSS VL: DIVLTQSPASLAVSLGQRATISCRASKSVSTFGNSYMLWYQQKPGQPPKLLIYLASNLESGVPARFSGSGSGTDFTLNIHPVEEEDAATYYCQNSRELPYTFGGGTKLEIKR | – | – |
